Data reported in patent US20220402983A1 (Janssen / Centocor, published 2022).
Bridges are numbered along the chain shown (N, C = ends). [ ]: non-standard residue; d: D form. The star is where a group is joined. Trp(7-Me) = Cc1cccc2c(C[C@H](N)C(=O)O)c[nH]c12; Phe(4-NH2) = Nc1ccc(C[C@H](N)C(=O)O)cc1; 2Nal = N[C@@H](Cc1ccc2ccccc2c1)C(=O)O; (N-benzyl)Asn = N-benzyl-asparagine; AEF = NCCOc1ccc(C[C@H](N)C(=O)O)cc1; αMeF = C[C@](N)(Cc1ccccc1)C(=O)O; Cit = NC(=O)NCCC[C@H](N)C(=O)O; αMeL = CC(C)C[C@](C)(N)C(=O)O; Pen = CC(C)(S)[C@H](N)C(=O)O; αMeK = C[C@](N)(CCCCN)C(=O)O; Ac5c = NC1(C(=O)O)CCCC1; Thp = NC1(C(=O)O)CCOCC1; Tfa = O=C(C(F)(F)F)*

T1: human IL-23R (interleukin-23 receptor) (human, UniProt Q5VWK5 24-629)
T1 sequence (looked up): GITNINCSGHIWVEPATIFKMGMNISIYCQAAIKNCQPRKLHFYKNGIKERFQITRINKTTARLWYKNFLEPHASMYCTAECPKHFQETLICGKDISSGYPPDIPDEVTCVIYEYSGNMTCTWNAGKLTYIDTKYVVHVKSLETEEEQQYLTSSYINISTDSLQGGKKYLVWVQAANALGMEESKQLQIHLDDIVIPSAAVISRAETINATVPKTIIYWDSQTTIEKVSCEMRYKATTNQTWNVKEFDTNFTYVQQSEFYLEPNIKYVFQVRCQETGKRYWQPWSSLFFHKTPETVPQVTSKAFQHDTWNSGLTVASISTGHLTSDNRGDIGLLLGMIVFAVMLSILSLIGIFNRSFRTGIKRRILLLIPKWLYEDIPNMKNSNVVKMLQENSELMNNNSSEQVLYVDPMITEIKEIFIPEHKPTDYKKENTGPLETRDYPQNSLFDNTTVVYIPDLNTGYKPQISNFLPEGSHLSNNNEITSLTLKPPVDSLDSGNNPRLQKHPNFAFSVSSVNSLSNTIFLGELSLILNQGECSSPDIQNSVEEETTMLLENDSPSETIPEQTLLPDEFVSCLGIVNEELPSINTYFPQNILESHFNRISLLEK


Target: T1, human IL-23R (interleukin-23 receptor)
Experiment: cell-based or functional assay

Binder	PBMC pSTAT3 IC50 (nM)	pStat3 HTRF (nM), IC50, DB cells IL23R pSTAT3 cell assay
Ac-[Pen]NTWK(Ac)[Pen][AEF][2Nal][αMeK]K(Ac)N[αMeF]-NH2 (disulfide 1-6; SMILES CC(=O)NCCCC[C@@H]1NC(=O)[C@H](Cc2c[nH]c3ccccc23)NC(=O)[C@H]([C@@H](C)O)NC(=O)[C@H](CC(N)=O)NC(=O)[C@@H](NC(C)=O)C(C)(C)SSC(C)(C)[C@@H](C(=O)N[C@@H](Cc2ccc(OCCN)cc2)C(=O)N[C@@H](Cc2ccc3ccccc3c2)C(=O)N[C@@](C)(CCCCN)C(=O)N[C@@H](CCCCNC(C)=O)C(=O)N[C@@H](CC(N)=O)C(=O)N[C@@](C)(Cc2ccccc2)C(N)=O)NC1=O) [Compound No. 98]	15 nM	
Ac-[dR][Pen]QTWQ[Pen][AEF][2Nal][Thp]EN[(N-benzyl)Asn]-NH2 (disulfide 2-7) [Compound No. 110]	700 nM	
Ac-[Pen]NT[Trp(7-Me)]K(Ac)[Pen][AEF][2Nal][αMeK]K(Ac)N[Thp][dY]-NH2 (disulfide 1-6; SMILES CC(=O)NCCCC[C@@H]1NC(=O)[C@H](Cc2c[nH]c3c(C)cccc23)NC(=O)[C@H]([C@@H](C)O)NC(=O)[C@H](CC(N)=O)NC(=O)[C@@H](NC(C)=O)C(C)(C)SSC(C)(C)[C@@H](C(=O)N[C@@H](Cc2ccc(OCCN)cc2)C(=O)N[C@@H](Cc2ccc3ccccc3c2)C(=O)N[C@@](C)(CCCCN)C(=O)N[C@@H](CCCCNC(C)=O)C(=O)N[C@@H](CC(N)=O)C(=O)NC2(C(=O)N[C@H](Cc3ccc(O)cc3)C(N)=O)CCOCC2)NC1=O) [Compound No. 107]	11 nM	
Ac-[Pen]NT[Trp(7-Me)]K(Ac)[Pen][AEF][2Nal][αMeK]K(Ac)N[Phe(4-NH2)]-NH2 (disulfide 1-6; SMILES CC(=O)NCCCC[C@@H]1NC(=O)[C@H](Cc2c[nH]c3c(C)cccc23)NC(=O)[C@H]([C@@H](C)O)NC(=O)[C@H](CC(N)=O)NC(=O)[C@@H](NC(C)=O)C(C)(C)SSC(C)(C)[C@@H](C(=O)N[C@@H](Cc2ccc(OCCN)cc2)C(=O)N[C@@H](Cc2ccc3ccccc3c2)C(=O)N[C@@](C)(CCCCN)C(=O)N[C@@H](CCCCNC(C)=O)C(=O)N[C@@H](CC(N)=O)C(=O)N[C@@H](Cc2ccc(N)cc2)C(N)=O)NC1=O) [Compound No. 112]		2.09 nM
Ac-[Pen]NT[Trp(7-Me)][Cit][Pen][AEF][2Nal][αMeL]K(Ac)N[αMeF]-NH2 (disulfide 1-6; SMILES CC(=O)NCCCC[C@H](NC(=O)[C@](C)(CC(C)C)NC(=O)[C@H](Cc1ccc2ccccc2c1)NC(=O)[C@H](Cc1ccc(OCCN)cc1)NC(=O)[C@H]1NC(=O)[C@H](CCCNC(N)=O)NC(=O)[C@H](Cc2c[nH]c3c(C)cccc23)NC(=O)[C@H]([C@@H](C)O)NC(=O)[C@H](CC(N)=O)NC(=O)[C@@H](NC(C)=O)C(C)(C)SSC1(C)C)C(=O)N[C@@H](CC(N)=O)C(=O)N[C@@](C)(Cc1ccccc1)C(N)=O) [Compound No. 104]	8.2 nM	
Ac-[dR][Pen]NTWK(Ac)[Pen][AEF][2Nal][Ac5c]EN[αMeF]-NH2 (disulfide 2-7; SMILES CC(=O)NCCCC[C@@H]1NC(=O)[C@H](Cc2c[nH]c3ccccc23)NC(=O)[C@H]([C@@H](C)O)NC(=O)[C@H](CC(N)=O)NC(=O)[C@@H](NC(=O)[C@@H](CCCNC(=N)N)NC(C)=O)C(C)(C)SSC(C)(C)[C@@H](C(=O)N[C@@H](Cc2ccc(OCCN)cc2)C(=O)N[C@@H](Cc2ccc3ccccc3c2)C(=O)NC2(C(=O)N[C@@H](CCC(=O)O)C(=O)N[C@@H](CC(N)=O)C(=O)N[C@@](C)(Cc3ccccc3)C(N)=O)CCCC2)NC1=O) [Compound No. 102]	8.4 nM	
Ac-[Pen]NT[Trp(7-Me)][Cit][Pen][AEF][2Nal][αMeL]K(Ac)N[Thp]-NH2 (disulfide 1-6; SMILES CC(=O)NCCCC[C@H](NC(=O)[C@](C)(CC(C)C)NC(=O)[C@H](Cc1ccc2ccccc2c1)NC(=O)[C@H](Cc1ccc(OCCN)cc1)NC(=O)[C@H]1NC(=O)[C@H](CCCNC(N)=O)NC(=O)[C@H](Cc2c[nH]c3c(C)cccc23)NC(=O)[C@H]([C@@H](C)O)NC(=O)[C@H](CC(N)=O)NC(=O)[C@@H](NC(C)=O)C(C)(C)SSC1(C)C)C(=O)N[C@@H](CC(N)=O)C(=O)NC1(C(N)=O)CCOCC1) [Compound No. 108]	5.1 nM	
Ac-[dR][Pen]NT[Trp(7-Me)]Q[Pen][AEF][2Nal][Ac5c]EN[Thp]-NH2 (disulfide 2-7; SMILES CC(=O)N[C@H](CCCNC(=N)N)C(=O)N[C@@H]1C(=O)N[C@@H](CC(N)=O)C(=O)N[C@@H]([C@@H](C)O)C(=O)N[C@@H](Cc2c[nH]c3c(C)cccc23)C(=O)N[C@@H](CCC(N)=O)C(=O)N[C@H](C(=O)N[C@@H](Cc2ccc(OCCN)cc2)C(=O)N[C@@H](Cc2ccc3ccccc3c2)C(=O)NC2(C(=O)N[C@@H](CCC(=O)O)C(=O)N[C@@H](CC(N)=O)C(=O)NC3(C(N)=O)CCOCC3)CCCC2)C(C)(C)SSC1(C)C) [Compound No. 99]	4.2 nM	
Ac-[Pen]NTWK(Tfa)[Pen][AEF][2Nal][αMeK]K(Ac)N[Thp]-NH2 (disulfide 1-6; SMILES CC(=O)NCCCC[C@H](NC(=O)[C@](C)(CCCCN)NC(=O)[C@H](Cc1ccc2ccccc2c1)NC(=O)[C@H](Cc1ccc(OCCN)cc1)NC(=O)[C@H]1NC(=O)[C@H](CCCCNC(=O)C(F)(F)F)NC(=O)[C@H](Cc2c[nH]c3ccccc23)NC(=O)[C@H]([C@@H](C)O)NC(=O)[C@H](CC(N)=O)NC(=O)[C@@H](NC(C)=O)C(C)(C)SSC1(C)C)C(=O)N[C@@H](CC(N)=O)C(=O)NC1(C(N)=O)CCOCC1) [Compound No. 103]	57 nM	

Other lines, results leading:

PBMC pSTAT3 IC50 (nM)	pStat3 HTRF (nM), IC50, DB cells IL23R pSTAT3 cell assay	Binder
0.74 nM		Ac-[dR][Pen]NT[Trp(7-Me)]K(Ac)[Pen][AEF][2Nal][Ac5c]EN[Thp]-NH2 (disulfide 2-7; SMILES CC(=O)NCCCC[C@@H]1NC(=O)[C@H](Cc2c[nH]c3c(C)cccc23)NC(=O)[C@H]([C@@H](C)O)NC(=O)[C@H](CC(N)=O)NC(=O)[C@@H](NC(=O)[C@@H](CCCNC(=N)N)NC(C)=O)C(C)(C)SSC(C)(C)[C@@H](C(=O)N[C@@H](Cc2ccc(OCCN)cc2)C(=O)N[C@@H](Cc2ccc3ccccc3c2)C(=O)NC2(C(=O)N[C@@H](CCC(=O)O)C(=O)N[C@@H](CC(N)=O)C(=O)NC3(C(N)=O)CCOCC3)CCCC2)NC1=O) [Compound No. 101]
2.2 nM		Ac-[dR][Pen]NTWK(Ac)[Pen][AEF][2Nal][Thp]EN[Thp]-NH2 (disulfide 2-7; SMILES CC(=O)NCCCC[C@@H]1NC(=O)[C@H](Cc2c[nH]c3ccccc23)NC(=O)[C@H]([C@@H](C)O)NC(=O)[C@H](CC(N)=O)NC(=O)[C@@H](NC(=O)[C@@H](CCCNC(=N)N)NC(C)=O)C(C)(C)SSC(C)(C)[C@@H](C(=O)N[C@@H](Cc2ccc(OCCN)cc2)C(=O)N[C@@H](Cc2ccc3ccccc3c2)C(=O)NC2(C(=O)N[C@@H](CCC(=O)O)C(=O)N[C@@H](CC(N)=O)C(=O)NC3(C(N)=O)CCOCC3)CCOCC2)NC1=O) [Compound No. 105]
21 nM		Ac-[Pen]NT[Trp(7-Me)]K(Ac)[Pen][AEF][2Nal][αMeK]K(Ac)N[αMeF][dY]-NH2 (disulfide 1-6; SMILES CC(=O)NCCCC[C@@H]1NC(=O)[C@H](Cc2c[nH]c3c(C)cccc23)NC(=O)[C@H]([C@@H](C)O)NC(=O)[C@H](CC(N)=O)NC(=O)[C@@H](NC(C)=O)C(C)(C)SSC(C)(C)[C@@H](C(=O)N[C@@H](Cc2ccc(OCCN)cc2)C(=O)N[C@@H](Cc2ccc3ccccc3c2)C(=O)N[C@@](C)(CCCCN)C(=O)N[C@@H](CCCCNC(C)=O)C(=O)N[C@@H](CC(N)=O)C(=O)N[C@@](C)(Cc2ccccc2)C(=O)N[C@H](Cc2ccc(O)cc2)C(N)=O)NC1=O) [Compound No. 100]
13 nM		Ac-[dR][Pen]NTWK(Ac)[Pen][AEF][2Nal][Thp]EN[αMeF]-NH2 (disulfide 2-7; SMILES CC(=O)NCCCC[C@@H]1NC(=O)[C@H](Cc2c[nH]c3ccccc23)NC(=O)[C@H]([C@@H](C)O)NC(=O)[C@H](CC(N)=O)NC(=O)[C@@H](NC(=O)[C@@H](CCCNC(=N)N)NC(C)=O)C(C)(C)SSC(C)(C)[C@@H](C(=O)N[C@@H](Cc2ccc(OCCN)cc2)C(=O)N[C@@H](Cc2ccc3ccccc3c2)C(=O)NC2(C(=O)N[C@@H](CCC(=O)O)C(=O)N[C@@H](CC(N)=O)C(=O)N[C@@](C)(Cc3ccccc3)C(N)=O)CCOCC2)NC1=O) [Compound No. 106]
